Source: US20200087681A1

Columns and labels:
CD19 = CD19 (UniProt P15391); assay: cell-based or functional assay
[1] = biological target: human serum immunoglobulin (IgG) (human); assay: flow cytometry of cFcR-transduced human T cells incubated with human serum IgG, co-stained for CD16 and IgG

UniProt P15391, sequence (P15391 20-556 limits assumed): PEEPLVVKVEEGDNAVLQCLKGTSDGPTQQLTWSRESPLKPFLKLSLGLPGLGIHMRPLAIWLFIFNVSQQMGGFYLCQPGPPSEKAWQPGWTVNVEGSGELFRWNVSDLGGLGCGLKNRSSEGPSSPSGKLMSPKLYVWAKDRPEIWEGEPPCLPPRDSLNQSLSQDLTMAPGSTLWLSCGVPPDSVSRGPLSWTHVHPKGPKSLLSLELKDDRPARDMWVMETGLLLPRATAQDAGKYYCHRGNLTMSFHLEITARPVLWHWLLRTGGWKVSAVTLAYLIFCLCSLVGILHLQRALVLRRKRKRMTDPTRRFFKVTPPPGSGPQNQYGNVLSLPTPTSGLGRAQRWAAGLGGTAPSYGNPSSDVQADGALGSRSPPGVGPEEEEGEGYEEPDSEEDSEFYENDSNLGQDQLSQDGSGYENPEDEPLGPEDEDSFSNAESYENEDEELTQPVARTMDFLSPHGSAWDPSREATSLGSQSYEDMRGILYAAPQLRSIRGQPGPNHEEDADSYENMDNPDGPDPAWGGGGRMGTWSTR

degranulation assay, CD107a upregulation on TCR+ CAR19+ T cells after 4 hr with CD19+ Daudi (CD19) [%]	degranulation assay, CD107a upregulation on TCR- CAR19+ T cells after 4 hr with CD19+ Daudi (CD19) [%]	percent of cells with CD16 and IgG co-staining [1] [%]	Substance
53	57	–	CD3z-41BB-CD8-CAR19scFv (4G7) chimeric antigen receptor (CAR19) (from UniProt P01732 138-206; Q07011 214-255; P20963 52-164)
–	–	7.5	chimeric FcR (cFcR) (from UniProt P08637 17-208; P01732 138-206; Q07011 214-255; P20963 52-164) (receptor)
